Assay [1] concerns the target T1, Recombinant human angiotensin-converting enzyme 2 (ACE2) protein, carrier-free (R&D Systems) (human), Q9BYF1. Kind of assay: cell-based or functional assay.
Assay [2] concerns the target T1, Recombinant human ….
Assay [3] deals with T1, Recombinant human …. This is another data set of the same source.
Assay [4] addresses T1, Recombinant human …. Kind of assay: calculated reference value for the zeta potential of the mixture.

T1 sequence (Q9BYF1 18-740 limits assumed): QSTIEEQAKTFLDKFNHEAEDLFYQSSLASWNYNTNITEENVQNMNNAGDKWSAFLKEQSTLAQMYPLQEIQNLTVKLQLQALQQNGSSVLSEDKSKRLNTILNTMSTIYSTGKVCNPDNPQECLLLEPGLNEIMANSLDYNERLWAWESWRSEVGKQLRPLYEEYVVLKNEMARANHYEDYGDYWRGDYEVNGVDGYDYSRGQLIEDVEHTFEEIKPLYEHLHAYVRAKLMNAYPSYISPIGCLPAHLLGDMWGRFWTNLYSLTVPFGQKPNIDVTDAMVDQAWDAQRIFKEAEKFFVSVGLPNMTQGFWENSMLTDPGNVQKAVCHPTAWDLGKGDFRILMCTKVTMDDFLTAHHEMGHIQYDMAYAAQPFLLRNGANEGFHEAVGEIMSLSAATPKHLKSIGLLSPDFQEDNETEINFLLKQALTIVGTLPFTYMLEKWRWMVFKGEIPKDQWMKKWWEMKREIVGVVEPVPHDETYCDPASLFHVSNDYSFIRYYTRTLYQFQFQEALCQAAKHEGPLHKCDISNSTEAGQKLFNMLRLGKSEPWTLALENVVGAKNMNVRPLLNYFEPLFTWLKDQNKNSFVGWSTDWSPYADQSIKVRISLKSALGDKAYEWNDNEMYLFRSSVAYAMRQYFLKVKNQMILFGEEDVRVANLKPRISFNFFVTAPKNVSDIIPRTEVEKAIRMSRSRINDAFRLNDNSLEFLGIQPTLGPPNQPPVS

B1: ACE2-docking supramolecular filaments (20:1 molar ratio of Filler to Ligand), without ACE2 (peptide)
peptide 1: VVVGEE
peptide 2: VVVGKKGGGDYSHCSPLRYYPWWKCTYPDPEGGG
modifications: not checked
Consider B1, for which, in assay [1], the ACE2 enzymatic inhibition at 0 min incubation came to 83% and the inhibition of added ACE2 (initial velocity relative to free ACE2) is 93%. Further, the zeta potential of the 20:1 filaments after addition of ACE2 (bar '20:1+ACE2'); the sheet prints -31.9 for '20:1' without ACE2 (** between the two) and -29.4 for 'Filler' alone in assay [2] is -36.7 mV.

As for VVVGKKGGGDYSHCSPLRYYPWWKCTYPDPEGGG (modifications not checked) [ACE2-binding Ligand peptide amphiphile (C12-VVVGKK-GG-OEG4-DX600)], the zeta potential of the mixture, measured in assay [3] was -25.1 mV. Further, the intensity-averaged zeta potential calculated assuming no interaction in assay [4] is -17.6 mV.

Source of the values: patent US20250009896A1, “SUPR[…] BASED VIRAL […] CAPTURE FOR PREVENTION AND THERAPY OF VIRAL INFECTION” (The Johns Hopkins University, priority 2023, published 2025).
